Assay results from the nanobody polyreactivity screen of Harvey et al. (2022).

Test: yeast display, Sf9 membrane polyspecificity reagent, FACS + sequencing; frameworks hold sequencing errors
In short: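 Using colony PCR, genes from sorted yeast display clones were amplified, then sequenced on MiSeq at 2 × 250 and filtered by CDR length. The clones had been stained with 10% biotinylated, detergent-solubilized Sf9 membrane reagent for 1 hour at 4 °C and sorted by FACS into low and high (top ~1%) gates on anti-HA and streptavidin fluorescence. Polyreactivity labels come from the gate of origin.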
In the case of “QVQLVESGGGLVQAGGSLRLSCAASGFIFAEYAMGWYRQAPGKDRELVAAITSGGSTSYADSVKGRFTISRDNAKNTVYLQMNSLKPEDTAVYYCAATWYYHYNDWKHWYEYGYWGQGTQVTVSS”, the “polyreactivity (PSR sort gate)” value is reported as “low polyreactivity”. In the case of “QVQLVESGGGLVQAGGSLRLSCAASGFIFAEYAMGWYRQAPGKERELVAAITSGGSTSYADSVKGRFTISRDNAKNTVYLQMNSLIPEDTAVYYCAATWYYHYNDWKHWYEYGYWGQGTQVTVSS”, the “polyreactivity (PSR sort gate)” value is reported as “low polyreactivity”. In the case of “QVQLVESGGGLVQAGGSLRLSCAASGFIFAFNAMGWYRQAPGKERELVAAISRSGGSTYADSVKGRFTISRDNEKNTVYLQMNSLKPEDTAVYFCAAYSGVGYLWFDYWGHGTQVTVSS”, the “polyreactivity (PSR sort gate)” value is reported as “low polyreactivity”. With “QVQLVESGGGLVQAGGSLRLSCAASGFIFAGNAMGWYRQAPGKEREWVAAISRRGVRTYYADSVKGRFTISRDNAKNTVYLQMNSLKPEDTAVYYCAADRPASLISSDYWGQGTQVTVSS” the “polyreactivity (PSR sort gate)” value was “high polyreactivity”. In the case of “QVQLVESGGGLVQAGGSLRLSCAASGFIFAGYAMGWYRQAPGKERELVAAISSRGGSTYYADSVKGRFTISRDNAKNTVYLQMNSLKPEDTAVYYCNKYYYGFTPDGYKKMDYWGQGTQVTVSS”, the “polyreactivity (PSR sort gate)” value is reported as “low polyreactivity”. For “QVQLVESGGGLVQAGGSLRLSCAASGFIFAINAMGWYRQAPGKEREFVAAISSDGASTYYADSVKGRFTISRDNAKNTVYFQMNSLKPEDTAVYYCNAVPYEWTYPYEYYYWGQGTQVTVSS”, the “polyreactivity (PSR sort gate)” value was “low polyreactivity”. For “QVQLVESGGGLVQAGGSLRLSCAASGFIFAKYAMGWYRQAPGKEMELVAAITSGGSTNYADSVKGRFTISRDNAKNTVYLQMNSLKPDDTAVYYCNRGFDWWYRYRHYDYWGQGTQVTVSS”, the “polyreactivity (PSR sort gate)” value was “low polyreactivity”. For “QVQLVESGGGLVQAGGSLRLSCAASGFIFAKYAMGWYRQAPGKERALGAAITSGGSTNYADSVKGRFTISRDNAKNTLYLQMNSLNPEDTAVYSCNRGFDWCYRYRHYDYWGQGTQVTVSS”, the “polyreactivity (PSR sort gate)” value was “low polyreactivity”. In the case of “QVQLVESGGGLVQAGGSLRLSCAASGFIFANYVMGWYRQAPGKERELVAAITYSGNTYYADSVKGRFTISRDNAKNTVYLQMNSLKPVDTAVYYCNADYVEGGLPGYDFDYWGQGTQVTVSS”, the “polyreactivity (PSR sort gate)” value is reported as “low polyreactivity”. For “QVQLVESGGGLVQAGGSLRLSCAASGFIFAPNAMGWYRQAPGKERELVAAISQSGASTFYADSVKGRFTISRDNAKNTVYFQMNSLKPEDTAVYYCAAPPYYSYDYWGQGTQVTVSS”, the “polyreactivity (PSR sort gate)” value was “low polyreactivity”. With “QVQLVESGGGLVQAGGSLRLSCAASGFIFARNAMGRYRQDTGKERELVAVISTRGRTYYADSVKGRFTISRDNSKNTVYLQMNSLKPEDTAVYYCNADKVIGYDYWGQCTQVTVSS” the “polyreactivity (PSR sort gate)” value was “high polyreactivity”. For “QVQLVESGGGLVQAGGSLRLSCAASGFIFARYAMGWYRQAPGKEREFVAAITWSGGTTYYADSVKGRFTISRDYAKNTVYFQMNSLKPEDTAVYYCAARWGKTLWQYNYWGQGTQVTVSS”, the “polyreactivity (PSR sort gate)” value was “high polyreactivity”. In the case of “QVQLVESGGGLVQAGGSLRLSCAASGFIFASNVMGWYRQAPGKERELVAAISWSGTRTYYADSVKGRFTISRDNAKNTVYLQMNSLKPEDTAVYYCAARRLYAGHQYDYWGQGTQVTVSS”, the “polyreactivity (PSR sort gate)” value is reported as “high polyreactivity”. In the case of “QVQLVESGGGLVQAGGSLRLSCAASGFIFASYAMGWYRQAPGKERELVAAISSRGGRTYYADSVKGRFTISRDNAKNTVSLQMNSLKPEDTAVYYCAAENYWLAWYKGYDYCGQGTQVTVSS”, the “polyreactivity (PSR sort gate)” value is reported as “high polyreactivity”. In the case of “QVQLVESGGGLVQAGGSLRLSCAASGFIFATNAMGWYRQAPGKERELVAAISRSGGSTYYADSVKGRFTISRDNAKNTVYLQMYSLKPEDTAVYYCATPRYRYYTIYDYGYWGQGTQVNVSS”, the “polyreactivity (PSR sort gate)” value is reported as “high polyreactivity”. For “QVQLVESGGGLVQAGGSLRLSCAASGFIFATNTMGWYRQAPGKERELVAASSTYYADSVKGRFTISRDNAKNTVYLQMNSLKPEDTAVYYCNADRDSYIGFVVWAGEYWGQGSQVTVSS”, the “polyreactivity (PSR sort gate)” value was “low polyreactivity”. With “QVQLVESGGGLVQAGGSLRLSCAASGFIFAVYAMGWYRQAPGKERELVARISSGRGSTYYADSVKGRFTISRDNAKNTVYFQMNSLKPEDTAVYYCAADPVHRFPGTGGYWGQGTQVTVSS” the “polyreactivity (PSR sort gate)” value was “low polyreactivity”. For “QVQLVESGGGLVQAGGSLRLSCAASGFIFAWNDMGWYRQAPGKERELVAAISSGTSTNYADSVKGRFTISRDNAKNTVYLQMNSLKPEDTGVYYCNVDSPLQPYRYYYWGQGSQVTVSS”, the “polyreactivity (PSR sort gate)” value was “low polyreactivity”. With “QVQLVESGGGLVQAGGSLRLSCAASGFIFAWYAMGWYRQAPGKERELVADITSGGDTSYADSVKGRFTISLDNAKNTVYLQMNSLKPEDTAVYYCAAVWEPWNIRLVLTAVDYWGQGTQVTVSS” the “polyreactivity (PSR sort gate)” value was “low polyreactivity”. In the case of “QVQLVESGGGLVQAGGSLRLSCAASGFIFAYNAMGWYRQAPGKEREFVAAISRSGGSTRYADSVKGRFTISRDNAKNTVYLQMNSLKPEDTAVYYCAARSGSWGQGTQVTVSS”, the “polyreactivity (PSR sort gate)” value is reported as “high polyreactivity”. For “QVQLVESGGGLVQAGGSLRLSCAASGFIFAYNAMGWYRQAPGKERELVAAISRSGGSTRYADSVKGRFTISRDNAKNTVYLQMNSLKPEDTAVYYCAARSGSWGQGTQVTVSS”, the “polyreactivity (PSR sort gate)” value was “high polyreactivity”. In the case of “QVQLVESGGGLVQAGGSLRLSCAASGFIFAYNAMGWYRQAPGKERELVAAISWSGGSTYYADSVKGRFTISRDNAKNTVYLQMNSLKPEDTAVYYCNAFSYYGARYDYWGLGTQVTVSS”, the “polyreactivity (PSR sort gate)” value is reported as “high polyreactivity”. In the case of “QVQLVESGGGLVQAGGSLRLSCAASGFIFAYNAMGWYRQAPGKERELVAGISRRGGSTYYADSVKGRFTISRDNAKNTVYLQMNSLKPEDTAVYYCAADSFTYWSWLHGYWGQGTQVTVSS”, the “polyreactivity (PSR sort gate)” value is reported as “high polyreactivity”. For “QVQLVESGGGLVQAGGSLRLSCAASGFIFAYNAMGWYRQAPGKERELVASIRTRAGSTYYADSVKGRFTISRDNAKNTDYLQMNSLKPADTAVYYSAARPFPRRYDYWGQGTQVTVSS”, the “polyreactivity (PSR sort gate)” value was “low polyreactivity”. In the case of “QVQLVESGGGLVQAGGSLRLSCAASGFIFAYYAMGWYRQAPGKERELVAAISQIGGRTYYADSVKGRFTISRDNAKNTVYLQMNSLKPEDTAVYYCAKAGAYKYGYWGQGTQVTVSS”, the “polyreactivity (PSR sort gate)” value is reported as “high polyreactivity”. In the case of “QVQLVESGGGLVQAGGSLRLSCAASGFIFAYYAMGWYRQAPGKERELVAAITWSGGITYYADSVKGRFTISRDNAKNTVYLQMNSLKPEDTAVYYCNRAWSSHRYYYWGQGTQVTVSS”, the “polyreactivity (PSR sort gate)” value is reported as “high polyreactivity”. For “QVQLVESGGGLVQAGGSLRLSCAASGFIFDAYAMGWYRPAPGKEREFVAGISIGGRTNYADSVKGRFTISRDNAKNTVYLQMNSLKPEDSAVYYCAARNYRYYYGSYFRGPITNYEYWGQGTQVTVSS”, the “polyreactivity (PSR sort gate)” value was “low polyreactivity”. With “QVQLVESGGGLVQAGGSLRLSCAASGFIFDDNAMGRYRQAPGKERELVAAITSGGGSTYYADSVKGRFTISRDNAKNTVYLQMNSLKPEDNAVYYCNAVPSQHVEFDYWGQGTQVTVSS” the “polyreactivity (PSR sort gate)” value was “low polyreactivity”. For “QVQLVESGGGLVQAGGSLRLSCAASGFIFDDNSMGWYRQAPGTEREFVAAISQGAGSTYYADSVKGRFTISRDTAKNTVNLQMNSLKPEDTAVYYCNNGRPKYWYGYKYDYWGHGTQVTVSS”, the “polyreactivity (PSR sort gate)” value was “low polyreactivity”. In the case of “QVQLVESGGGLVQAGGSLRLSCAASGFIFDFYAMGWYRQAPGKERELVADITGGGSTYYADSVKGRFTISRDNAKNTVYLQMNSLKPEDTAVYYCAASYGVYWYSFWYHVAWYDYWGQGTQVTVSS”, the “polyreactivity (PSR sort gate)” value is reported as “low polyreactivity”. In the case of “QVQLVESGGGLVQAGGSLRLSCAASGFIFDFYTMGWYRQATGKESELVAAITWSGDSTYYADSVKGRFTISRDNAKNTVYLQMNSLKPEDTAVYYCAADWWGVWYFDYDYWGQGTQVTVSS”, the “polyreactivity (PSR sort gate)” value is reported as “low polyreactivity”. For “QVQLVESGGGLVQAGGSLRLSCAASGFIFDGYAMGWYRQAPGKERELVAAIDSGGDRTYYADSVKGRFTISRDNAKYTVYLQMNSLKPEDTAVYYCAADSSDPTGYDYWGQGTQVTVSS”, the “polyreactivity (PSR sort gate)” value was “low polyreactivity”. For “QVQLVESGGGLVQAGGSLRLSCAASGFIFDHYAMGWYRQAPGKERELVAAISGSGGSTYYADSVKGRFPISRDNAKNTVYLQMNSLKPEDTAVYYCAARPGSKYAQRGYWGQGTHVTVSS”, the “polyreactivity (PSR sort gate)” value was “high polyreactivity”. With “QVQLVESGGGLVQAGGSLRLSCAASGFIFDINAIGWYRQAPGKERELVAAISYSGGSTYYADSVKGRFTISRDNAKNTVYLQMNSLKPEDTAVYYCAADSGPDSDEGDYWGQGTQVTVSS” the “polyreactivity (PSR sort gate)” value was “low polyreactivity”. With “QVQLVESGGGLVQAGGSLRLSCAASGFIFDIYAMGWYRQAPGKERELVASITWDDGSTYYADSVKGRFTISRDNAKNTVYLQMNRLKPVDTAVYYCAADFEAGGYSLDYWGQGTQVTVSS” the “polyreactivity (PSR sort gate)” value was “low polyreactivity”. For “QVQLVESGGGLVQAGGSLRLSCAASGFIFDLYAMGWSRQAPGKERELVAAITYSGGSTYYADSVKGRFTISRDNAKNTVYLQMNSLKPEDTAVYYCAAYYGGRGYWGQGTQVTVSS”, the “polyreactivity (PSR sort gate)” value was “low polyreactivity”. In the case of “QVQLVESGGGLVQAGGSLRLSCAASGFIFDPYAMGWYRQAPGKERELVAAISDGGSTNYADSVKGRFTISRDNAKNTVYLQMNSLKPEDTAVYYCAVEYWYVWVTFDYWGQGTQVTVSS”, the “polyreactivity (PSR sort gate)” value is reported as “low polyreactivity”. In the case of “QVQLVESGGGLVQAGGSLRLSCAASGFIFDQYAMGWYRQAPGKERELVATITSDGDTYYADSVKGRFTISRDNAKNTVYLHMISLKPEDSAVYYCAVEPGPYTTGYDYWGQGTQVTVSS”, the “polyreactivity (PSR sort gate)” value is reported as “low polyreactivity”. For “QVQLVESGGGLVQAGGSLRLSCAASGFIFDRNAMGWYRQAPGKERELVAAISKSGGSTYYADSVKGRFSISRDNAKNTVYLQMNSLKPEDTAVYYCAADRPTIRYNSWGQGTQVTVSS”, the “polyreactivity (PSR sort gate)” value was “high polyreactivity”. For “QVQLVESGGGLVQAGGSLRLSCAASGFIFDRNTMGWYRQAPGKERELVAAISRSGGSTYYADSVKGRFTISRDNAKNTVYLLMNSLKPEDSAVYYCAALYYYRNRSYDYWGQGTQVTVSS”, the “polyreactivity (PSR sort gate)” value was “high polyreactivity”. With “QVQLVESGGGLVQAGGSLRLSCAASGFIFDTYVRGWYRQAPGKERELVAAISRTGGRTYYADSVKGRFTISRDNAKNTLYLQMNSLKPEDTAVYYCAARQSTQSGSYRRYNYWGQGTQVTVSS” the “polyreactivity (PSR sort gate)” value was “high polyreactivity”.
